Results on 18 molecules are retold here after patent publication US11833164B2, “Methods of treating Fabry disease in patients having a mutation in the GLA gene” (Amicus Therapeutics, Inc., priority 2019, dated 2023).

The test system of this test is mutant form of α-Gal A expressed in HEK-293 cells. Description: HEK assay (GLP HEK / Migalastat Amenability Assay): α-Gal A activity in lysates of transiently transfected HEK-293 cells incubated with or without 10 μM migalastat. The format is cell-based, human. The settings on record: for Absolute increase (% WT) / Relative increase: 10 μM migalastat versus baseline; for Baseline α-Gal A activity (% WT): absence of migalastat; for Baseline α-Gal A activity (% WT) / 10 μM migalastat α-Gal A activity (% WT): percentage of baseline wild-type α-Gal A activity; for 10 μM migalastat α-Gal A activity: incubated 5 days with 10 μM migalastat; for 10 μM migalastat α-Gal A activity (% WT): with 10 μM migalastat, 5 days. The gist of the method: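 HEK-293 cells transiently transfected with mutant α-Gal A and incubated with or without 10 μM migalastat; lysate activity given as nmol free 4-MU released per mg protein per hour. Values are mean±SEM.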

[1] abbreviates: lysates of HEK-293 cells transiently transfected with the mutant form, incubated 5 days in absence of migalastat, mean ± SEM.
The mark [2] stands for this setting: lysates of HEK-293 cells transiently transfected with the mutant form, mean ± SEM.

Numbering of substitutions follows the chain as printed. Names may count otherwise.

B1: A288S (protein)
chain: MQLRNPELHLGCALALRFLALVSWDIPGARALDNGLARTPTMGWLHWERFMCNLDCQEEPDSCISEKLFMEMAELMVSEGWKDAGYEYLCIDDCWMAPQRDSEGRLQADPQRFPHGIRQLANYVHSKGLKLGIYADVGNKTCAGFPGSFGYYDIDAQTFADWGVDLLKFDGCYCDSLENLADGYKHMSLALNRTGRSIVYSCEWPLYMWPFQKPNYTEIRQYCNHWRNFADIDDSWKSIKSILDWTSFNQERIVDVAGPGGWNDPDMLVIGNFGLSWNQQVTQMALWSIMAAPLFMSNDLRHISPQAKALLQDKDVIAINQDPLGKQGYQLRQGDNFEVWERPLSGLAWAVAMINRQEIGGPRSYTIAVASLGKGVACNPACFITQLLPVKRKLGFYEWTSRLRSHINPTGTVLLQLENTMQMSLKDLL
Take B1: the “Absolute increase (% WT)” value is 25.8 % WT and the Relative increase stood at 1.2. Where the note is “mean ± SEM”, the “Baseline α-Gal A activity (% WT)” value stood at 114.6 ± 10.6 % WT and the “10 μM migalastat α-Gal A activity (% WT)” value was 140.4 ± 10.5 % WT. Also, the “Baseline α-Gal A activity” value under setting [1] was 45790 ± 3395 nmol/mg/h. Under setting [2], the “10 μM migalastat α-Gal A activity” value amounted to 55988 ± 2609 nmol/mg/h.

B2: A291G (protein)
chain: B1 chain with S288A, A291G
Take B2: the “Absolute increase (% WT)” value stood at 34.9 % WT and the Relative increase is recorded as 2.3. Moreover, for the setting “mean ± SEM”, the “Baseline α-Gal A activity (% WT)” value turned out to be 26.6 ± 1.5 % WT and the “10 μM migalastat α-Gal A activity (% WT)” value is 61.5 ± 2.6 % WT. In addition, the “Baseline α-Gal A activity” value under setting [1] turned out to be 6953 ± 474 nmol/mg/h. Under setting [2], the “10 μM migalastat α-Gal A activity” value is 16073 ± 954 nmol/mg/h.

B3: N298D (protein)
chain: B1 chain with S288A, N298D
For B3, the “Absolute increase (% WT)” value is reported as 21.7 % WT and the Relative increase was 9.6. Also, under “mean ± SEM”, the “Baseline α-Gal A activity (% WT)” value stood at 2.5 ± 0.2 % WT and the “10 μM migalastat α-Gal A activity (% WT)” value is 24.2 ± 1.2 % WT. Under setting [1], the “Baseline α-Gal A activity” value was 795 ± 56 nmol/mg/h. Besides, the “10 μM migalastat α-Gal A activity” value under setting [2] came out at 7645 ± 388 nmol/mg/h.

B4: S297T (protein)
chain: B1 chain with S288A, S297T
For B4, the “Absolute increase (% WT)” value is 9.7 % WT. Further, the “Baseline α-Gal A activity (nmol/mg/hr)” value under setting [1] is reported as “BLD (“BLD” indicates that the mean α-Gal A activity was below the limit of detection (<142 nmol/mg/hr))”. The “10 μM migalastat α-Gal A activity” value under setting [2] was determined as 3178 ± 327 nmol/mg/h. For the same molecule, for the setting “mean ± SEM”, the “10 μM migalastat α-Gal A activity (% WT)” value is listed as 9.7 ± 0.8 % WT.

B5: N298I (protein)
chain: B1 chain with S288A, N298I
As for B5, the “Absolute increase (% WT)” value is reported as 34.9 % WT and the Relative increase turned out to be 4.7. Also, for the setting “mean ± SEM”, the “Baseline α-Gal A activity (% WT)” value amounted to 9.2 ± 0.7 % WT and the “10 μM migalastat α-Gal A activity (% WT)” value worked out at 44.1 ± 1.8 % WT. In addition, the “Baseline α-Gal A activity” value under setting [1] is 2942 ± 262 nmol/mg/h. For the same molecule, the “10 μM migalastat α-Gal A activity” value under setting [2] was 13906 ± 535 nmol/mg/h.

B6: I289V (protein)
chain: B1 chain with S288A, I289V
Take B6: the “Absolute increase (% WT)” value is 13.6 % WT and the Relative increase was determined as 1.2. Where the note is “mean ± SEM”, the “Baseline α-Gal A activity (% WT)” value is 61.2 ± 3.2 % WT and the “10 μM migalastat α-Gal A activity (% WT)” value came out at 74.8 ± 2.7 % WT. For the same molecule, the “Baseline α-Gal A activity” value under setting [1] was found to be 25845 ± 1706 nmol/mg/h. In addition, the “10 μM migalastat α-Gal A activity” value under setting [2] is 31489 ± 1397 nmol/mg/h.

B7: F295V (protein)
chain: B1 chain with S288A, F295V
On to B7, for which the “Absolute increase (% WT)” value is listed as 48.0 % WT and the Relative increase came out at 1.7. In addition, for the setting “mean ± SEM”, the “Baseline α-Gal A activity (% WT)” value is 73.4 ± 5.7 % WT and the “10 μM migalastat α-Gal A activity (% WT)” value worked out at 121.5 ± 7.7 % WT. The “Baseline α-Gal A activity” value under setting [1] amounted to 24973 ± 1752 nmol/mg/h. Further, the “10 μM migalastat α-Gal A activity” value under setting [2] worked out at 41782 ± 2877 nmol/mg/h.

B8: F295S (protein)
chain: B1 chain with S288A, F295S
With B8, the “Absolute increase (% WT)” value is recorded as 10.5 % WT and the Relative increase is recorded as 16.8. Besides, where the note is “mean ± SEM”, the “Baseline α-Gal A activity (% WT)” value was determined as 0.6 ± 0.1 % WT and the “10 μM migalastat α-Gal A activity (% WT)” value turned out to be 11.1 ± 0.9 % WT. The “Baseline α-Gal A activity” value under setting [1] stood at 230 ± 45 nmol/mg/h. Moreover, the “10 μM migalastat α-Gal A activity” value under setting [2] stood at 3847 ± 309 nmol/mg/h.

B9: I289L (protein)
chain: B1 chain with S288A, I289L
In the case of B9, the “Absolute increase (% WT)” value came out at 27.5 % WT and the Relative increase was 1.3. Besides, where the note is “mean ± SEM”, the “Baseline α-Gal A activity (% WT)” value worked out at 96.9 ± 10.5 % WT and the “10 μM migalastat α-Gal A activity (% WT)” value was 124.4 ± 11.3 % WT. In addition, the “Baseline α-Gal A activity” value under setting [1] was 37941 ± 3208 nmol/mg/h. For the same molecule, under setting [2], the “10 μM migalastat α-Gal A activity” value worked out at 49640 ± 3368 nmol/mg/h.

B10: L294V (protein)
chain: B1 chain with S288A, L294V
Regarding B10, the “Absolute increase (% WT)” value is given as 33.8 % WT and the Relative increase was 9.0. Besides, where the note is “mean ± SEM”, the “Baseline α-Gal A activity (% WT)” value worked out at 4.4 ± 0.3 % WT and the “10 μM migalastat α-Gal A activity (% WT)” value was found to be 38.2 ± 2.7 % WT. The “Baseline α-Gal A activity” value under setting [1] was 1452 ± 71 nmol/mg/h. Further, under setting [2], the “10 μM migalastat α-Gal A activity” value was 13038 ± 880 nmol/mg/h.

B11: L294I (protein)
chain: B1 chain with S288A, L294I
For B11, the “Absolute increase (% WT)” value is 53.6 % WT and the Relative increase is 3.2. Also, under “mean ± SEM”, the “Baseline α-Gal A activity (% WT)” value came out at 24.8 ± 2.4 % WT and the “10 μM migalastat α-Gal A activity (% WT)” value is 78.4 ± 6 % WT. In addition, under setting [1], the “Baseline α-Gal A activity” value was found to be 8345 ± 717 nmol/mg/h. The “10 μM migalastat α-Gal A activity” value under setting [2] was 26761 ± 1915 nmol/mg/h.

B12: I289T (protein)
chain: B1 chain with S288A, I289T
For the molecule B12, the “Absolute increase (% WT)” value amounted to 36.7 % WT and the Relative increase stood at 2.0. Further, under “mean ± SEM”, the “Baseline α-Gal A activity (% WT)” value was found to be 38.6 ± 4.8 % WT and the “10 μM migalastat α-Gal A activity (% WT)” value came out at 75.3 ± 7.9 % WT. In addition, the “Baseline α-Gal A activity” value under setting [1] turned out to be 15033 ± 1450 nmol/mg/h. For the same molecule, the “10 μM migalastat α-Gal A activity” value under setting [2] was 29673 ± 2480 nmol/mg/h.

B13: F295Y (protein)
chain: B1 chain with S288A, F295Y
With B13, the “Absolute increase (% WT)” value is given as 36.3 % WT and the Relative increase stood at 1.6. For the setting “mean ± SEM”, the “Baseline α-Gal A activity (% WT)” value was found to be 62.9 ± 6.1 % WT and the “10 μM migalastat α-Gal A activity (% WT)” value stood at 99.2 ± 6.5 % WT. In addition, the “Baseline α-Gal A activity” value under setting [1] was 21452 ± 1929 nmol/mg/h. In addition, the “10 μM migalastat α-Gal A activity” value under setting [2] is 34502 ± 2504 nmol/mg/h.

B14: L294F (protein)
chain: B1 chain with S288A, L294F
With B14, the “Absolute increase (% WT)” value is 38.8 % WT and the Relative increase is listed as 2.3. Also, where the note is “mean ± SEM”, the “Baseline α-Gal A activity (% WT)” value was determined as 29.6 ± 3 % WT and the “10 μM migalastat α-Gal A activity (% WT)” value turned out to be 68.4 ± 6.5 % WT. Besides, under setting [1], the “Baseline α-Gal A activity” value turned out to be 10147 ± 971 nmol/mg/h. Under setting [2], the “10 μM migalastat α-Gal A activity” value was 23486 ± 2100 nmol/mg/h.

B15: A292G (protein)
chain: B1 chain with S288A, A292G
Turning to B15, the “Absolute increase (% WT)” value was 24.3 % WT and the Relative increase turned out to be 1.6. In addition, for the setting “mean ± SEM”, the “Baseline α-Gal A activity (% WT)” value turned out to be 41.1 ± 2.2 % WT and the “10 μM migalastat α-Gal A activity (% WT)” value stood at 65.3 ± 4 % WT. Besides, the “Baseline α-Gal A activity” value under setting [1] came to 12091 ± 652 nmol/mg/h. The “10 μM migalastat α-Gal A activity” value under setting [2] came to 19406 ± 1361 nmol/mg/h.

B16: A292S (protein)
chain: B1 chain with S288A, A292S
Regarding B16, the “Absolute increase (% WT)” value was 21.3 % WT and the Relative increase amounted to 1.3. Also, for the setting “mean ± SEM”, the “Baseline α-Gal A activity (% WT)” value is given as 68.6 ± 2.9 % WT and the “10 μM migalastat α-Gal A activity (% WT)” value amounted to 89.9 ± 3.4 % WT. For the same molecule, the “Baseline α-Gal A activity” value under setting [1] is 18002 ± 1127 nmol/mg/h. Further, the “10 μM migalastat α-Gal A activity” value under setting [2] came to 23779 ± 1584 nmol/mg/h.

B17: F295I (protein)
chain: B1 chain with S288A, F295I
B17: the “Absolute increase (% WT)” value was 25.7 % WT and the Relative increase was found to be 1.3. Also, for the setting “mean ± SEM”, the “Baseline α-Gal A activity (% WT)” value came out at 78.3 ± 4.5 % WT and the “10 μM migalastat α-Gal A activity (% WT)” value came out at 104.1 ± 6.6 % WT. For the same molecule, under setting [1], the “Baseline α-Gal A activity” value is 26687 ± 1470 nmol/mg/h. Besides, the “10 μM migalastat α-Gal A activity” value under setting [2] came to 35634 ± 2203 nmol/mg/h.

B18: A288V (protein)
chain: B1 chain with S288V
As for B18, the “Absolute increase (% WT)” value came to 31.7 % WT and the Relative increase worked out at 1.4. For the same molecule, under “mean ± SEM”, the “Baseline α-Gal A activity (% WT)” value is 82.5 ± 9 % WT and the “10 μM migalastat α-Gal A activity (% WT)” value was 114.2 ± 12.4 % WT. Also, the “Baseline α-Gal A activity” value under setting [1] came out at 32777 ± 3168 nmol/mg/h. In addition, the “10 μM migalastat α-Gal A activity” value under setting [2] came out at 45501 ± 4634 nmol/mg/h.
